Consider 3 molecules from paper PMC3830201, “Swiprosin-1 modulates actin dynamics by regulating the F-actin accessibility to cofilin” (Cellular and Molecular Life Sciences: CMLS, 2013).

Changes are numbered by the printed parent chain. Names may count otherwise.

In this assay the target is F-actin assembled from rabbit skeletal muscle G-actin (rabbit, UniProt P68135 1-377). The experiment in a line: co-sedimentation; purified GST or GST-Swiprosin-1 proteins incubated with 5 uM G-actin in actin polymerization buffer (MgCl2, KCl, ATP) at 25 C to assemble filaments; ultracentrifuged at 45,000 rpm; supernatant and pellet by SDS-PAGE, Coomassie. To be noted: both partners purified.

B1: GST-Swiprosin-1 fusion protein (wild type) (natural protein)
chain: MATDELATKLSRRLQMEGEGGGETPEQPGLNGAAAAAAGAPDEAAEALGSADCELSAKLLRRADLNQGIGEPQSPSRRVFNPYTEFKEFSRKQIKDMEKMFKQYDAGRDGFIDLMELKLMMEKLGAPQTHLGLKNMIKEVDEDFDSKLSFREFLLIFRKAAAGELQEDSGLCVLARLSEIDVSSEGVKGAKSFFEAKVQAINVSSRFEEEIKAEQEERKKQAEEMKQRKAAFKELQSTFK
notes: Swiprosin-1 (EF hand domain containing 2, EFHD2), human (hSwiprosin-1); Cloned into pGEX4T1; also called GST-Swiprosin-1-WT; GST-Sw-WT; source: purified GST fusion protein (pGEX4T1); also used on agarose beads
B1: the binding result is recorded as “binds”.

B2: GST-Swiprosin-1 S183E (phosphorylation-mimicking mutant) (natural protein)
chain: B1 chain with S183E
notes: Swiprosin-1 (EFHD2), human (hSwiprosin-1); also called GST-Sw-S183E; source: purified GST fusion protein (pGEX4T1)
Turning to B2, the binding result is “binds”.

B3: GST-Swiprosin-1 S183A (phosphorylation-deficient mutant) (natural protein)
chain: B1 chain with S183A
notes: Swiprosin-1 (EFHD2), human (hSwiprosin-1); also called GST-Sw-S183A; source: purified GST fusion protein (pGEX4T1)
Regarding B3, the binding result is recorded as “binds”.
